# T1: FcγRIIa R (extracellular domain, His tag at the C terminus) (human, UniProt P12318 34-217)
# T1 construct: extracellular domain; Soluble analyte in Biacore; also called FcgRIIa R type; 2aR
# T1 sequence (looked up): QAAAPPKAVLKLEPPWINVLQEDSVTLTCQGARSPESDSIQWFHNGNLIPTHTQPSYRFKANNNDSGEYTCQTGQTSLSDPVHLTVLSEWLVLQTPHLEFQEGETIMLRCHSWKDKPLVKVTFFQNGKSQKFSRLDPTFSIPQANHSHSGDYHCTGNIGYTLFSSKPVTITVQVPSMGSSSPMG
# Biological target: T1, FcγRIIa R (extracellular domain, His …)
# Assay: SPR (Biacore), relative binding, control GpH7-A5/GpH7-B3/GpL16-k0 = 100
# Description: Analysis of interaction between objective antibody and the FcγR was carried out using Biacore T100 (GE Healthcare). HBS-EP+ (GE Healthcare) was used as the running buffer, and the measurement temperature was set to 25° C. Chips produced by immobilizing the antigen peptide by the amine coupling method to a Series S Sencor Chip CM5 (GE Healthcare), or alternatively, chips produced by allowing preliminarily biotinylated antigen peptides to interact with and immobilize onto a Series S Sensor Chip SA (certified) (GE Healthcare) were used. Antibodies of interest were captured onto an antigen peptide-immobilized chip, and allowed to interact to each FcγR diluted with running buffer. To regenerate and repeatedly use the chip, the antibodies captured on the chip were washed off by reacting 10 mM glycine-HCl, pH 1.5.
row,Binder,He/Con_2aR
1,"GpH7-A5/GpH7-B3 variant K326_10E/GpL16-k0 (antibody, human IgG1, kappa, heterodimerized; also called He Ab) heavy 1: not shown heavy 2: not shown light: DIVMTQSPLSLPVTPGEPASISCQASESLVHSNRNTYLHWYLQKPGQSPQLLIYKVSNRFSGVPDRFSGSGSGTDFTLKISRVEAEDVGVYYCSQNTHVPPTFGQGTKVEIERTVAAPSVFIFPPSDEQLKSGTASVVCLLNNFYPREAKVQWKVDNALQSGNSQESVTEQDSKDSTYSLSSTLTLSKADYEKHKVYACEVTHQGLSSPVTKSFNRGEC",148 % of control
2,"GpH7-A5/GpH7-B3 variant K334_03V/GpL16-k0 (antibody, human IgG1, kappa, heterodimerized; also called He Ab) heavy 1: not shown heavy 2: not shown light: DIVMTQSPLSLPVTPGEPASISCQASESLVHSNRNTYLHWYLQKPGQSPQLLIYKVSNRFSGVPDRFSGSGSGTDFTLKISRVEAEDVGVYYCSQNTHVPPTFGQGTKVEIERTVAAPSVFIFPPSDEQLKSGTASVVCLLNNFYPREAKVQWKVDNALQSGNSQESVTEQDSKDSTYSLSSTLTLSKADYEKHKVYACEVTHQGLSSPVTKSFNRGEC",117 % of control
3,"GpH7-A5/GpH7-B3 variant K326_14T/GpL16-k0 (antibody, human IgG1, kappa, heterodimerized; also called He Ab) heavy 1: not shown heavy 2: not shown light: DIVMTQSPLSLPVTPGEPASISCQASESLVHSNRNTYLHWYLQKPGQSPQLLIYKVSNRFSGVPDRFSGSGSGTDFTLKISRVEAEDVGVYYCSQNTHVPPTFGQGTKVEIERTVAAPSVFIFPPSDEQLKSGTASVVCLLNNFYPREAKVQWKVDNALQSGNSQESVTEQDSKDSTYSLSSTLTLSKADYEKHKVYACEVTHQGLSSPVTKSFNRGEC",134 % of control
4,"GpH7-A5/GpH7-B3 variant K326_19Q/GpL16-k0 (antibody, human IgG1, kappa, heterodimerized; also called He Ab) heavy 1: not shown heavy 2: not shown light: DIVMTQSPLSLPVTPGEPASISCQASESLVHSNRNTYLHWYLQKPGQSPQLLIYKVSNRFSGVPDRFSGSGSGTDFTLKISRVEAEDVGVYYCSQNTHVPPTFGQGTKVEIERTVAAPSVFIFPPSDEQLKSGTASVVCLLNNFYPREAKVQWKVDNALQSGNSQESVTEQDSKDSTYSLSSTLTLSKADYEKHKVYACEVTHQGLSSPVTKSFNRGEC",129 % of control
5,"GpH7-A5/GpH7-B3 variant K326_16H/GpL16-k0 (antibody, human IgG1, kappa, heterodimerized; also called He Ab) heavy 1: not shown heavy 2: not shown light: DIVMTQSPLSLPVTPGEPASISCQASESLVHSNRNTYLHWYLQKPGQSPQLLIYKVSNRFSGVPDRFSGSGSGTDFTLKISRVEAEDVGVYYCSQNTHVPPTFGQGTKVEIERTVAAPSVFIFPPSDEQLKSGTASVVCLLNNFYPREAKVQWKVDNALQSGNSQESVTEQDSKDSTYSLSSTLTLSKADYEKHKVYACEVTHQGLSSPVTKSFNRGEC",120 % of control

# Other lines, results leading:
row,He/Con_2aR,Binder
1,109 % of control,"GpH7-A5/GpH7-B3 variant K334_16H/GpL16-k0 (antibody, human IgG1, kappa, heterodimerized; also called He Ab) heavy 1: not shown heavy 2: not shown light: DIVMTQSPLSLPVTPGEPASISCQASESLVHSNRNTYLHWYLQKPGQSPQLLIYKVSNRFSGVPDRFSGSGSGTDFTLKISRVEAEDVGVYYCSQNTHVPPTFGQGTKVEIERTVAAPSVFIFPPSDEQLKSGTASVVCLLNNFYPREAKVQWKVDNALQSGNSQESVTEQDSKDSTYSLSSTLTLSKADYEKHKVYACEVTHQGLSSPVTKSFNRGEC"
2,114 % of control,"GpH7-A5/GpH7-B3 variant K334_07I/GpL16-k0 (antibody, human IgG1, kappa, heterodimerized; also called He Ab) heavy 1: not shown heavy 2: not shown light: DIVMTQSPLSLPVTPGEPASISCQASESLVHSNRNTYLHWYLQKPGQSPQLLIYKVSNRFSGVPDRFSGSGSGTDFTLKISRVEAEDVGVYYCSQNTHVPPTFGQGTKVEIERTVAAPSVFIFPPSDEQLKSGTASVVCLLNNFYPREAKVQWKVDNALQSGNSQESVTEQDSKDSTYSLSSTLTLSKADYEKHKVYACEVTHQGLSSPVTKSFNRGEC"
3,108 % of control,"GpH7-A5/GpH7-B3 variant K334_15Y/GpL16-k0 (antibody, human IgG1, kappa, heterodimerized; also called He Ab) heavy 1: not shown heavy 2: not shown light: DIVMTQSPLSLPVTPGEPASISCQASESLVHSNRNTYLHWYLQKPGQSPQLLIYKVSNRFSGVPDRFSGSGSGTDFTLKISRVEAEDVGVYYCSQNTHVPPTFGQGTKVEIERTVAAPSVFIFPPSDEQLKSGTASVVCLLNNFYPREAKVQWKVDNALQSGNSQESVTEQDSKDSTYSLSSTLTLSKADYEKHKVYACEVTHQGLSSPVTKSFNRGEC"
4,112 % of control,"GpH7-A5/GpH7-B3 variant K334_14T/GpL16-k0 (antibody, human IgG1, kappa, heterodimerized; also called He Ab) heavy 1: not shown heavy 2: not shown light: DIVMTQSPLSLPVTPGEPASISCQASESLVHSNRNTYLHWYLQKPGQSPQLLIYKVSNRFSGVPDRFSGSGSGTDFTLKISRVEAEDVGVYYCSQNTHVPPTFGQGTKVEIERTVAAPSVFIFPPSDEQLKSGTASVVCLLNNFYPREAKVQWKVDNALQSGNSQESVTEQDSKDSTYSLSSTLTLSKADYEKHKVYACEVTHQGLSSPVTKSFNRGEC"

# Source: US20150344570A1 (published 2015)
